B1: Neurogenin-3 (Homo sapiens), Q9Y4Z2 (parent)
chain: MTPQPSGAPTVQVTRETERSFPRASEDEVTCPTSAPPSPTRTRGNCAEAEEGGCRGAPRKLRARRGGRSRPKSELALSKQRRSRRKKANDRERNRMHNLNSALDALRGVLPTFPDDAKLTKIETLRFAHNYIWALTQTLRIADHSLYALEPPAPHCGELGSPGGSPGDWGSLYSPVSQAGSLSPAASLEERPGLLGATFSACLSPGSLAFSDFL
B2: MYG1 exonuclease (Homo sapiens), Q9HB07 (parent)
chain: MGHRFLRGLLTLLLPPPPLYTRHRMLGPESVPPPKRSRSKLMAPPRIGTHNGTFHCDEALACALLRLLPEYRDAEIVRTRDPEKLASCDIVVDVGGEYDPRRHRYDHHQRSFTETMSSLSPGKPWQTKLSSAGLIYLHFGHKLLAQLLGTSEEDSMVGTLYDKMYENFVEEVDAVDNGISQWAEGEPRYALTTTLSARVARLNPTWNHPDQDTEAGFKRAMDLVQEEFLQRLDFYQHSWLPARALVEEALAQRFQVDPSGEIVELAKGACPWKEHLYHLESGLSPPVAIFFVIYTDQAGQWRIQCVPKEPHSFQSRLPLPEPWRGLRDEALDQVSGIPGCIFVHASGFIGGHRTREGALSMARATLAQRSYLPQIS
B3: Farnesyl pyrophosphate synthase (Homo sapiens), P14324 (parent)
chain: MPLSRWLRSVGVFLLPAPYWAPRERWLGSLRRPSLVHGYPVLAWHSARCWCQAWTEEPRALCSSLRMNGDQNSDVYAQEKQDFVQHFSQIVRVLTEDEMGHPEIGDAIARLKEVLEYNAIGGKYNRGLTVVVAFRELVEPRKQDADSLQRAWTVGWCVELLQAFFLVADDIMDSSLTRRGQICWYQKPGVGLDAINDANLLEACIYRLLKLYCREQPYYLNLIELFLQSSYQTEIGQTLDLLTAPQGNVDLVRFTEKRYKSIVKYKTAFYSFYLPIAAAMYMAGIDGEKEHANAKKILLEMGEFFQIQDDYLDLFGDPSVTGKIGTDIQDNKCSWLVVQCLQRATPEQYQILKENYGQKEAEKVARVKALYEELDLPAVFLQYEEDSYSHIMALIEQYAAPLPPAVFLGLARKIYKRRK
partner: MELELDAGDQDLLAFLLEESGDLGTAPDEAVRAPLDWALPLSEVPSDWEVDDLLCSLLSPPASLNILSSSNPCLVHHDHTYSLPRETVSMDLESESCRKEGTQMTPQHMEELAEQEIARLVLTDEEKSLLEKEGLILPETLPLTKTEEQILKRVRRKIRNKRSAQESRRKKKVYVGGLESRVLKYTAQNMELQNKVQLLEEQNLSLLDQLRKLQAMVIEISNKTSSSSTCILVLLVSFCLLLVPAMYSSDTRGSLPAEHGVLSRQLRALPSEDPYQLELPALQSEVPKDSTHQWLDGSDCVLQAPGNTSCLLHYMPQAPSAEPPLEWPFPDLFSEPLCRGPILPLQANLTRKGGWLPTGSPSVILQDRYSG
B4: Protein DBF4 homolog B (Homo sapiens), Q8NFT6 (parent)
chain: MSEPGKGDDCLELESSMAESRLRAPDLGVSRCLGKCQKNSPGARKHPFSGKSFYLDLPAGKNLQFLTGAIQQLGGVIEGFLSKEVSYIVSSRREVKAESSGKSHRGCPSPSPSEVRVETSAMVDPKGSHPRPSRKPVDSVPLSRGKELLQKAIRNQGSISGGGSGGSSSLLTNARSWGVRILHVDEMMMHVQQLSLASLCVKKQQPKKPEGTCPAAESRTRKVARLKAPFLKIEDESRKFRPFHHQFKSFPEISFLGPKDASPFEAPTTLGSMHHTRESKDGEPSPRSAAHTMPRRKKGYCECCQEAFEELHVHLQSAQHRSFALEAHLYAEVDRIIAQLSHSFADIPFQAGLPRWSGSPASDCDPLCPETLHPHQPSHPRAASPRIRKEDSCQASVTQGRAAGQQRWTESLDGVMGPPASHTCVSATTLLPALPKGSREQGCLCPCPASFTQSHLVTSLALLPGEWSPAEDMPLHPSQENSFAPADIPVKGPLLFPEARPWLMSARCWVRPFPFVTWGCLIPHDTTPLHEEVSPCPCLRLGYLYLLLTQSLWCRVRVPSLSTAGPIPRTSHPCTLAFPSYLNDHDLGHLCQAKPQGWNTPQPFLHCGFLAVDSG
partner: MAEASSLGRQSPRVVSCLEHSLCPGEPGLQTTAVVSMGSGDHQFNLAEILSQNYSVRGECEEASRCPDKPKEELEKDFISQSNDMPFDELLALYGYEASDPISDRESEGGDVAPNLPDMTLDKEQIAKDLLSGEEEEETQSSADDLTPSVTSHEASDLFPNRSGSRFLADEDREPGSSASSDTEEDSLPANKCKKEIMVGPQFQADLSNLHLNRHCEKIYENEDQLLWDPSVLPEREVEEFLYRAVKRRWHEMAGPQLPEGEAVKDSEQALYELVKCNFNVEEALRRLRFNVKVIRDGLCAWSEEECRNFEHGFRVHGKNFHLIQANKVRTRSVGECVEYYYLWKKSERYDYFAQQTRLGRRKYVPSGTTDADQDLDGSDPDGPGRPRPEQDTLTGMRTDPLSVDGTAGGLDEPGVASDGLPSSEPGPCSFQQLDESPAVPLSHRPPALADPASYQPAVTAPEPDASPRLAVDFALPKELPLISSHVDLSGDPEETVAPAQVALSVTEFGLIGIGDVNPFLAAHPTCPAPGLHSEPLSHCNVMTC
B5: cGMP-dependent protein kinase 1 (Homo sapiens), Q13976 (parent)
chain: MSELEEDFAKILMLKEERIKELEKRLSEKEEEIQELKRKLHKCQSVLPVPSTHIGPRTTRAQGISAEPQTYRSFHDLRQAFRKFTKSERSKDLIKEAILDNDFMKNLELSQIQEIVDCMYPVEYGKDSCIIKEGDVGSLVYVMEDGKVEVTKEGVKLCTMGPGKVFGELAILYNCTRTATVKTLVNVKLWAIDRQCFQTIMMRTGLIKHTEYMEFLKSVPTFQSLPEEILSKLADVLEETHYENGEYIIRQGARGDTFFIISKGTVNVTREDSPSEDPVFLRTLGKGDWFGEKALQGEDVRTANVIAAEAVTCLVIDRDSFKHLIGGLDDVSNKAYEDAEAKAKYEAEAAFFANLKLSDFNIIDTLGVGGFGRVELVQLKSEESKTFAMKILKKRHIVDTRQQEHIRSEKQIMQGAHSDFIVRLYRTFKDSKYLYMLMEACLGGELWTILRDRGSFEDSTTRFYTACVVEAFAYLHSKGIIYRDLKPENLILDHRGYAKLVDFGFAKKIGFGKKTWTFCGTPEYVAPEIILNKGHDISADYWSLGILMYELLTGSPPFSGPDPMKTYNIILRGIDMIEFPKKIAKNAANLIKKLCRDNPSERLGNLKNGVKDIQKHKWFEGFNWEGLRKGTLTPPIIPSVASPTDTSNFDSFPEDNDEPPPDDNSGWDIDF
partner: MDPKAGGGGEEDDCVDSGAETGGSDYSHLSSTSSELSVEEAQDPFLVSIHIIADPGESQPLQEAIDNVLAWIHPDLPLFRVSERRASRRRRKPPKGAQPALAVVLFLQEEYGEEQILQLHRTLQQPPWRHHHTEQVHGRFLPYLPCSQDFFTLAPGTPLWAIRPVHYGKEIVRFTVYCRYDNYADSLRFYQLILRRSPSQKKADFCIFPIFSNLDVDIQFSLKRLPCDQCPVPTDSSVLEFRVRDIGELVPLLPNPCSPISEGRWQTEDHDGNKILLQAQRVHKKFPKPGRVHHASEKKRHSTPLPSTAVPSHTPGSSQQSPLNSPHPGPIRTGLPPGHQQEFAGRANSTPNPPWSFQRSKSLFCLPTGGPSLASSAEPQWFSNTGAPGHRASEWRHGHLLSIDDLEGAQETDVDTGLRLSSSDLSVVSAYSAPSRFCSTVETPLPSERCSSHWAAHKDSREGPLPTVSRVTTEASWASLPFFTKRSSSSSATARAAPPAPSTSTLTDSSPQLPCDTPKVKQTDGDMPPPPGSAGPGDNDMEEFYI
B6: mRNA-decapping enzyme 1A (Homo sapiens), Q9NPI6 (parent)
chain: MEALSRAGQEMSLAALKQHDPYITSIADLTGQVALYTFCPKANQWEKTDIEGTLFVYRRSASPYHGFTIVNRLNMHNLVEPVNKDLEFQLHEPFLLYRNASLSIYSIWFYDKNDCHRIAKLMADVVEEETRRSQQAARDKQSPSQANGCSDHRPIDILEMLSRAKDEYERNQMGDSNISSPGLQPSTQLSNLGSTETLEEMPSGSQDKSAPSGHKHLTVEELFGTSLPKEQPAVVGLDSEEMERLPGDASQKEPNSFLPFPFEQLGGAPQSETLGVPSAAHHSVQPEITTPVLITPASITQSNEKHAPTYTIPLSPVLSPTLPAEAPTAQVPPSLPRNSTMMQAVKTTPRQRSPLLNQPVPELSHASLIANQSPFRAPLNVTNTAGTSLPSVDLLQKLRLTPQHDQIQTQPLGKGAMVASFSPAAGQLATPESFIEPPSKTAAARVAASASLSNMVLAPLQSMQQNQDPEVFVQPKVLSSAIPVAGAPLVTATTTAVSSVLLAPSVFQQTVTRSSDLERKASSPSPLTIGTPESQRKPSIILSKSQLQDTLIHLIKNDSSFLSTLHEVYLQVLTKNKDNHNL
partner: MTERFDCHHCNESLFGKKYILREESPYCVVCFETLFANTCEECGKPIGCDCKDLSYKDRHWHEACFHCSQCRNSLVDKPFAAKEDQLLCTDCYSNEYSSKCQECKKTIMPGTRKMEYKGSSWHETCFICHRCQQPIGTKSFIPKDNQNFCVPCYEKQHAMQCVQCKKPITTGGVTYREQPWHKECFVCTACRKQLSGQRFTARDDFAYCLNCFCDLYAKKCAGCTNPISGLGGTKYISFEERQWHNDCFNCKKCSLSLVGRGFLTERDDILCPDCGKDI
B7: Zinc finger protein Aiolos (Homo sapiens), Q9UKT9 (parent)
chain: MEDIQTNAELKSTQEQSVPAESAAVLNDYSLTKSHEMENVDSGEGPANEDEDIGDDSMKVKDEYSERDENVLKSEPMGNAEEPEIPYSYSREYNEYENIKLERHVVSFDSSRPTSGKMNCDVCGLSCISFNVLMVHKRSHTGERPFQCNQCGASFTQKGNLLRHIKLHTGEKPFKCHLCNYACQRRDALTGHLRTHSVEKPYKCEFCGRSYKQRSSLEEHKERCRTFLQSTDPGDTASAEARHIKAEMGSERALVLDRLASNVAKRKSSMPQKFIGEKRHCFDVNYNSSYMYEKESELIQTRMMDQAINNAISYLGAEALRPLVQTPPAPTSEMVPVISSMYPIALTRAEMSNGAPQELEKKSIHLPEKSVPSERGLSPNNSGHDSTDTDSNHEERQNHIYQQNHMVLSRARNGMPLLKEVPRSYELLKPPPICPRDSVKVINKEGEVMDVYRCDHCRVLFLDYVMFTIHMGCHGFRDPFECNMCGYRSHDRYEFSSHIARGEHRALLK
partner: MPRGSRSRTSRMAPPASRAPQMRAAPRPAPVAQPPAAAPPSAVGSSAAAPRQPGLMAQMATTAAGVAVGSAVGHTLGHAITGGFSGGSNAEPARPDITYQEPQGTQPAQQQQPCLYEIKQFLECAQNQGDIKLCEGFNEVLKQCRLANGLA
B8: Microtubule-associated tumor suppressor candidate 2 (Homo sapiens), Q5JR59-3 (parent)
chain: MGHCCCKPYNCLQCLDKTNESALVKEKELSIELANIRDEVAFHTAKCEKLQKEKEELERRFEDEVKRLGWQQQAELQELEERLQLQFEAEMARLQEEHGDQLLSIRCQHQEQVEDLTASHDAALLEMENNHTVAITILQDDHDHKVQELMSTHELEKKELEENFEKLRLSLQDQVDTLTFQSQSLRDRARRFEEALRKNTEEQLEIALAPYQHLEEDMKSLKQVLEMKNQQIHEQEKKILELEKLAEKNIILEEKIQVLQQQNEDLKARIDQNTVVTRQLSEENANLQEYVEKETQEKKRLSRTNEELLWKLQTGDPTSPIKLSPTSPVYRGSSSGPSSPARVSTTPR
partner: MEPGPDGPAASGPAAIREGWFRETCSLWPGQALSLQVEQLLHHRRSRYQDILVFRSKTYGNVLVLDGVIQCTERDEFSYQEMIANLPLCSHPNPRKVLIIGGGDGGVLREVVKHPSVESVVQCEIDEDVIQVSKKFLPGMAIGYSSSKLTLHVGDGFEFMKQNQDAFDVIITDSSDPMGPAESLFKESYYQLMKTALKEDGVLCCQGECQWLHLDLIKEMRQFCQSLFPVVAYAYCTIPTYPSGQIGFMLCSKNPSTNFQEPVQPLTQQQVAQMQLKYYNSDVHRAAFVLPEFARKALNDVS

The variants in the first assay derive from B1. The following applies: with htf4_human TCF12, Q99081.
Chain of htf4_human TCF12, Q99081 (Q99081 whole entry): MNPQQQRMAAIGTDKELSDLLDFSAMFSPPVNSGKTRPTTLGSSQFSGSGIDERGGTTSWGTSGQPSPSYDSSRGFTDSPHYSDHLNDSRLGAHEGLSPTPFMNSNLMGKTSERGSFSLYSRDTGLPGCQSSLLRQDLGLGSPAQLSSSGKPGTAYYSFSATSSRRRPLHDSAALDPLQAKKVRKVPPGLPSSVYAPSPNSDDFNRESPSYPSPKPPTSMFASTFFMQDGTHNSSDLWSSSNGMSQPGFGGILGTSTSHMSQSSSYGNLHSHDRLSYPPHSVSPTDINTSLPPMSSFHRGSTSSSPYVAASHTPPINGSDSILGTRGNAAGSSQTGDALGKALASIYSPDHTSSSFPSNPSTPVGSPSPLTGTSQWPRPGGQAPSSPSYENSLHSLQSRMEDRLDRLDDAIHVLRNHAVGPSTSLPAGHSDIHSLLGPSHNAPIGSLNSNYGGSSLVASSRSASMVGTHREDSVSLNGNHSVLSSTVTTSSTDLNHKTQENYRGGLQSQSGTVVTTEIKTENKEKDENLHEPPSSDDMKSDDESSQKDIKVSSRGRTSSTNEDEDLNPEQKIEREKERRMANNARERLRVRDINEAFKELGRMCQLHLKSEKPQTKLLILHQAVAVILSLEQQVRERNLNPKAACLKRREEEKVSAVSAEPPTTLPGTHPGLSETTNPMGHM
As for F199S, the “effect of a mutation on the interaction” value is “with no effect”.

The variants in the next assay derive from B2. The following applies: with atrap_human AGTRAP.
Consider R243Q, for which the “effect of a mutation on the interaction” value is recorded as “with no effect”.
The same measure, in the same setting: the result for R188Q reads “with no effect”.

Variants of B3 are the subject of the next assay. The following applies: with creb3_human CREB3, O43889.
For R150Q, the “effect of a mutation on the interaction” value was “with no effect”.

A further assay covers variants of B4. The following applies: with mier2_human MIER2, Q8N344.
Turning to L199S, the “effect of a mutation on the interaction” value is “with no effect”.

The variants in the next assay derive from B5. The following applies: with FAM124A.
With N267S, the “effect of a mutation on the interaction” value is recorded as “with no effect”.

The variants in a further assay derive from B6. The following applies: with fhl2_human FHL2, Q14192.
Turning to Q474H, the “effect of a mutation on the interaction” value is listed as “with no effect”.
On the same count and under the same terms, the result for A297G reads “with no effect”.
On the same count and under the same terms, with P332T the entry was “with no effect”.

Variants of B7 are the subject of the next assay. The following applies: with chch2_human CHCHD2, Q9Y6H1.
Turning to N119D, the “effect of a mutation on the interaction” value was “with no effect”.
For A24V, the “effect of a mutation on the interaction” value is reported as “with no effect”.

Variants of B8 are the subject of another assay. The following applies: with spee_human SRM.
Take A89V: the “effect of a mutation on the interaction” value was “with no effect”.

These data come from IntAct's records for PubMed 31515488.
